Test results as given in article PMC12289019.

Columns and labels:
[1] = biological target: adeno-associated virus 2 (AAV2) capsid (adeno-associated virus 2)
[2] = biological target: adeno-associated virus 6 (AAV6) capsid (adeno-associated virus 6)
[3] = biological target: adeno-associated virus 2 (AAV2) capsid (adeno-associated virus 2); assay: SPR; AAV2 amine-coupled to a CM5 chip (9451 RU); HD5 or HNP1 as analyte; BIAcore X100, 25°C, PBS running buffer; 1:1 binding model for KD; stoichiometry by GraphPad Prism; 2 replicates; paper speaks of avidity
[4] = biological target: adeno-associated virus 2 (AAV2) capsid (adeno-associated virus 2); remark: listed apart in the source

human defensin 5 (HD5) (peptide)
IC50 of inhibition of AAV2 binding to HeLa cells in the cold (qPCR of bound genomes) [1]: 9.2 µM
IC50 of inhibition of AAV2 infection of HeLa cells (GFP), defensin added post-attachment [1]: 4.4 µM
IC50 of inhibition of AAV6 binding to HeLa cells in the cold (qPCR of bound genomes); inhibition incomplete [2]: 41.6 µM
Kd [3]: 0.57 µM
stoichiometry N (molecules per capsid) [3]: 385

human neutrophil peptide 1 (HNP1)
IC50 of inhibition of AAV2 infection of HeLa cells (GFP), defensin incubated with virus pre-attachment [4]: 9.7 µM
IC50 of inhibition of AAV2 infection of HeLa cells (GFP), defensin added post-attachment [1]: 6 µM
Kd [3]: 0.32 µM
stoichiometry N (molecules per capsid) [3]: 227
